Reference: the supplement of paper PMC5998384

Experiments:
HeLa Kyoto [1] = assay: solubility in G1/S (NP-40 vs SDS abundance) (log2 ratio); higher = more soluble; details: cell cycle stage: G1/S
HeLa Kyoto [2] = assay: solubility change mitosis vs G1/S (difference of NP-40 vs SDS log2 ratios) (log2 ratio difference); higher = more soluble in mitosis
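For solubility change mitosis vs G1/S (difference of NP-40 vs SDS log2 ratios) in this document: synchronized HeLa Kyoto cells (double thymidine block for G1/S, nocodazole release for mitosis), protein amounts in NP-40 versus SDS lysates quantified by mass spectrometry, three biological replicates.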
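For solubility in G1/S (NP-40 vs SDS abundance) in this document: HeLa Kyoto cells arrested at G1/S by double thymidine block, proteins quantified by TMT10plex mass spectrometry in mild NP-40 versus SDS extracts, three biological replicates.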

Sequence | solubility in G1/S (log2) (HeLa Kyoto [1]) | solubility change mitosis (log2) (HeLa Kyoto [2])
MAVWIQAQQLQGEALHQMQALYGQHFPIEVRHYLSQWIESQAWDSVDLDNPQENIKATQLLEGLVQELQKKAEHQVGEDGFLLKIKLGHYATQLQNTYDRCPMELVRCIRHILYNEQRLVREANNGSSPAGSLADAMSQKHLQINQTFEELRLVTQDTENELKKLQQTQEYFIIQYQESLRIQAQFGPLAQLSPQERLSRETALQQKQVSLEAWLQREAQTLQQYRVELAEKHQKTLQLLRKQQTIILDDELIQWKRRQQLAGNGGPPEGSLDVLQSWCEKLAEIIWQNRQQIRRAEHLCQQLPIPGPVEEMLAEVNATITDIISALVTSTFIIEKQPPQVLKTQTKFAATVRLLVGGKLNVHMNPPQVKATIISEQQAKSLLKNENTRNDYSGEILNNCCVMEYHQATGTLSAHFRNMSLKRIKRSDRRGAESVTEEKFTILFESQFSVGGNELVFQVKTLSLPVVVIVHGSQDNNATATVLWDNAFAEPGRVPFAVPDKVLWPQLCEALNMKFKAEVQSNRGLTKENLVFLAQKLFNNSSSHLEDYSGLSVSWSQFNRENLPGRNYTFWQWFDGVMEVLKKHLKPHWNDGAILGFVNKQQAHDLLINKPDGTFLLRFSDSEIGGITIAWKFDSQERMFWNLMPFTTRDFSIRSLADRLGDLNYLIYVFPDRPKDEVYSKYYTPVPCESATAKAVDGYVKPQIKQVVPEFVNASADAGGGSATYMDQAPSPAVCPQAHYNMYPQNPDSVLDTDGDFDLEDTMDVARRVEELLGRPMDSQWIPHAQS [STAT5B] | -0.0111 | -0.309
MGSAKSVPVTPARPPPHNKHLARVADPRSPSAGILRTPIQVESSPQPGLPAGEQLEGLKHAQDSDPRSPTLGIARTPMKTSSGDPPSPLVKQLSEVFETEDSKSNLPPEPVLPPEAPLSSELDLPLGTQLSVEEQMPPWNQTEFPSKQVFSKEEARQPTETPVASQSSDKPSRDPETPRSSGSMRNRWKPNSSKVLGRSPLTILQDDNSPGTLTLRQGKRPSPLSENVSELKEGAILGTGRLLKTGGRAWEQGQDHDKENQHFPLVES [CDCA3] | -0.032 | 0.957
MDEKTKKAEEMALSLTRAVAGGDEQVAMKCAIWLAEQRVPLSVQLKPEVSPTQDIRLWVSVEDAQMHTVTIWLTVRPDMTVASLKDMVFLDYGFPPVLQQWVIGQRLARDQETLHSHGVRQNGDSAYLYLLSARNTSLNPQELQRERQLRMLEDLGFKDLTLQPRGPLEPGPPKPGVPQEPGRGQPDAVPEPPPVGWQCPGCTFINKPTRPGCEMCCRARPEAYQVPASYQPDEEERARLAGEEEALRQYQQRKQQQQEGNYLQHVQLDQRSLVLNTEPAECPVCYSVLAPGEAVVLRECLHTFCRECLQGTIRNSQEAEVSCPFIDNTYSCSGKLLEREIKALLTPEDYQRFLDLGISIAENRSAFSYHCKTPDCKGWCFFEDDVNEFTCPVCFHVNCLLCKAIHEQMNCKEYQEDLALRAQNDVAARQTTEMLKVMLQQGEAMRCPQCQIVVQKKDGCDWIRCTVCHTEICWVTKGPRWGPGGPGDTSGGCRCRVNGIPCHPSCQNCH [RBCK1] | 0.08 | -0.0181
MKRHRPVSSSDSSDESPSTSFTSGSMYRIKSKIPNEHKKPAEVFRKDLISAMKLPDSHHINPDSYYLFADTWKEEWEKGVQVPASPDTVPQPSLRIIAEKVKDVLFIRPRKYIHCSSPDTTEPGYINIMELAASVCRYDLDDMDIFWLQELNEDLAEMGCGPVDENLMEKTVEVLERHCHENMNHAIETEEGLGIEYDEDVICDVCRSPDSEEGNDMVFCDKCNVCVHQACYGILKVPEGSWLCRSCVLGIYPQCVLCPKKGGALKTTKTGTKWAHVSCALWIPEVSIACPERMEPITKISHIPPSRWALVCNLCKLKTGACIQCSIKSCITAFHVTCAFEHGLEMKTILDEGDEVKFKSYCLKHSQNRQKLGEAEYPHHRAKEQSQAKSEKTSLRAQKLRELEEEFYSLVRVEDVAAELGMPTLAVDFIYNYWKLKRKSNFNKPLFPPKEDEENGLVQPKEESIHTRMRMFMHLRQDLERVRNLCYMISRREKLKLSHNKIQEQIFGLQVQLLNQEIDAGLPLTNALENSLFYPPPRITLKLKMPKSTPEDHRNSSTETDQQPHSPDSSSSVHSIRNMQVPQESLEMRTKSYPRYPLESKNNRLLASLSHSRSEAKESSPAWRTPSSECYHGQSLGKPLVLQAALHGQSSIGNGKSQPNSKFAKSNGLEGSWSGNVTQKDSSSEMFCDQEPVFSPHLVSQGSFRKSTVEHFSRSFKETTNRWVKNTEDLQCYVKPTKNMSPKEQFWGRQVLRRSAGRAPYQENDGYCPDLELSDSEAESDGNKEKVRVRKDSSDRENPPHDSRRDCHGKSKTHPLSHSSMQR [JADE3] | -0.949 | 0.383
MSKQQPTQFINPETPGYVGFANLPNQVHRKSVKKGFEFTLMVVGESGLGKSTLINSLFLTDLYPERVIPGAAEKIERTVQIEASTVEIEERGVKLRLTVVDTPGYGDAINCRDCFKTIISYIDEQFERYLHDESGLNRRHIIDNRVHCCFYFISPFGHGLKPLDVAFMKAIHNKVNIVPVIAKADTLTLKERERLKKRILDEIEEHNIKIYHLPDAESDEDEDFKEQTRLLKASIPFSVVGSNQLIEAKGKKVRGRLYPWGVVEVENPEHNDFLKLRTMLITHMQDLQEVTQDLHYENFRSERLKRGGRKVENEDMNKDQILLEKEAELRRMQEMIARMQAQMQMQMQGGDGDGGALGHHV [SEPT2] | 0.276 | -0.0125
MTSAVVDSGGTILELSSNGVENQEESEKVSEYPAVIVEPVPSARLEQGYAAQVLVYDDETYMMQDVAEEQEVETENVETVEASVHSSNAHCTDKTIEAAEALLHMESPTCLRDSRSPVEVFVPPCVSTPEFIHAAMRPDVITETVVEVSTEESEPMDTSPIPTSPDSHEPMKKKKVGRKPKTQQSPISNGSPELGIKKKPREGKGNTTYLWEFLLDLLQDKNTCPRYIKWTQREKGIFKLVDSKAVSKLWGKHKNKPDMNYETMGRALRYYYQRGILAKVEGQRLVYQFKDMPKNIVVIDDDKSETCNEDLAGTTDEKSLERVSLSAESLLKAASSVRSGKNSSPINCSRAEKGVARVVNITSPGHDASSRSPTTTASVSATAAPRTVRVAMQVPVVMTSLGQKISTVAVQSVNAGAPLITSTSPTTATSPKVVIQTIPTVMPASTENGDKITMQPAKIITIPATQLAQCQLQTKSNLTGSGSINIVGTPLAVRALTPVSIAHGTPVMRLSMPTQQASGQTPPRVISAVIKGPEVKSEAVAKKQEHDVKTLQLVEEKPADGNKTVTHVVVVSAPSAIALPVTMKTEGLVTCEK [ELF2] | 0.284 | 0.0877
MGAQDRPQCHFDIEINREPVGRIMFQLFSDICPKTCKNFLCLCSGEKGLGKTTGKKLCYKGSTFHRVVKNFMIQGGDFSEGNGKGGESIYGGYFKDENFILKHDRAFLLSMANRGKHTNGSQFFITTKPAPHLDGVHVVFGLVISGFEVIEQIENLKTDAASRPYADVRVIDCGVLATKSIKDVFEKKRKKPTHSEGSDSSSNSSSSSESSSESELEHERSRRRKHKRRPKVKRSKKRRKEASSSEEPRNKHAMNPKGHSERSDTNEKRSVDSSAKREKPVVRPEEIPPVPENRFLLRRDMPVVTAEPEPKIPDVAPIVSDQKPSVSKSGRKIKGRGTIRYHTPPRSRSCSESDDDDSSETPPHWKEEMQRLRAYRPPSGEKWSKGDKLSDPCSSRWDERSLSQRSRSWSYNGYYSDLSTARHSGHHKKRRKEKKVKHKKKGKKQKHCRRHKQTKKRRILIPSDIESSKSSTRRMKSSCDRERSSRSSSLSSHHSSKRDWSKSDKDVQSSLTHSSRDSYRSKSHSQSYSRGSSRSRTASKSSSHSRSRSKSRSSSKSGHRKRASKSPRKTASQLSENKPVKTEPLRATMAQNENVVVQPVVAENIPVIPLSDSPPPSRWKPGQKPWKPSYERIQEMKAKTTHLLPIQSTYSLANIKETGSSSSYHKREKNSESDQSTYSKYSDRSSESSPRSRSRSSRSRSYSRSYTRSRSLASSHSRSRSPSSRSHSRNKYSDHSQCSRSSSYTSISSDDGRRAKRRLRSSGKKNSVSHKKHSSSSEKTLHSKYVKGRDRSSCVRKYSESRSSLDYSSDSEQSSVQATQSAQEKEKQGQMERTHNKQEKNRGEEKSKSERECPHSKKRTLKENLSDHLRNGSKPKRKNYAGSKWDSESNSERDVTKNSKNDSHPSSDKEEGEATSDSESEVSEIHIKVKPTTKSSTNTSLPDDNGAWKSSKQRTSTSDSEGSCSNSENNRGKPQKHKHGSKENLKREHTKKVKEKLKGKKDKKHKAPKRKQAFHWQPPLEFGEEEEEEIDDKQVTQESKEKKVSENNETIKDNILKTEKSSEEDLSGKHDTVTVSSDLDQFTKDDSKLSISPTALNTEENVACLQNIQHVEESVPNGVEDVLQTDDNMEICTPDRSSPAKVEETSPLGNARLDTPDINIVLKQDMATEHPQAEVVKQESSMSESKVLGEVGKQDSSSASLASAGESTGKKEVAEKSQINLIDKKWKPLQGVGNLAAPNAATSSAVEVKVLTTVPEMKPQGLRIEIKSKNKVRPGSLFDEVRKTARLNRRPRNQESSSDEQTPSRDDDSQSRSPSRSRSKSETKSRHRTRSVSYSHSRSRSRSSTSSYRSRSYSRSRSRGWYSRGRTRSRSSSYRSYKSHRTSSRSRSRSSSYDPHSRSRSYTYDSYYSRSRSRSRSQRSDSYHRGRSYNRRSRSCRSYGSDSESDRSYSHHRSPSESSRYS [NKTR] | -1.34 | 0.283
MSWLFPLTKSASSSAAGSPGGLTSLQQQKQRLIESLRNSHSSIAEIQKDVEYRLPFTINNLTININILLPPQFPQEKPVISVYPPIRHHLMDKQGVYVTSPLVNNFTMHSDLGKIIQSLLDEFWKNPPVLAPTSTAFPYLYSNPSGMSPYASQGFPFLPPYPPQEANRSITSLSVADTVSSSTTSHTTAKPAAPSFGVLSNLPLPIPTVDASIPTSQNGFGYKMPDVPDAFPELSELSVSQLTDMNEQEEVLLEQFLTLPQLKQIITDKDDLVKSIEELARKNLLLEPSLEAKRQTVLDKYELLTQMKSTFEKKMQRQHELSESCSASALQARLKVAAHEAEEESDNIAEDFLEGKMEIDDFLSSFMEKRTICHCRRAKEEKLQQAIAMHSQFHAPL [VPS37A] | 0.656 | -0.0301
MLWLALGPFPAMENQVLVIRIKIPNSGAVDWTVHSGPQLLFRDVLDVIGQVLPEATTTAFEYEDEDGDRITVRSDEEMKAMLSYYYSTVMEQQVNGQLIEPLQIFPRACKPPGERNIHGLKVNTRAGPSQHSSPAVSDSLPSNSLKKSSAELKKILANGQMNEQDIRYRDTLGHGNGGTVYKAYHVPSGKILAVKVILLDITLELQKQIMSELEILYKCDSSYIIGFYGAFFVENRISICTEFMDGGSLDVYRKMPEHVLGRIAVAVVKGLTYLWSLKILHRDVKPSNMLVNTRGQVKLCDFGVSTQLVNSIAKTYVGTNAYMAPERISGEQYGIHSDVWSLGISFMELALGRFPYPQIQKNQGSLMPLQLLQCIVDEDSPVLPVGEFSEPFVHFITQCMRKQPKERPAPEELMGHPFIVQFNDGNAAVVSMWVCRALEERRSQQGPP [MAP2K5] | 0.128 | -0.109
